Test results reported in PMC5987717.

Legend:
Assay in all cases: FRET or BRET
[1] = target: hRIβ-Rluc8 (PKA regulatory subunit RIβ conjugated to mutant Renilla luciferase) (human) (UniProt P31321)
[2] = target: hRIIβ-RLuc8 (PKA regulatory subunit RIIβ conjugated to mutant Renilla luciferase) (human) (UniProt P31323)
[3] = target: hRIIα-RLuc8 (PKA regulatory subunit RIIα conjugated to mutant Renilla luciferase) (human) (UniProt P13861)
Sequence of hRIIα-RLuc8 (PKA regulatory subunit RIIα conjugated to mutant Renilla luciferase) (human) (P13861 whole entry, change not shown): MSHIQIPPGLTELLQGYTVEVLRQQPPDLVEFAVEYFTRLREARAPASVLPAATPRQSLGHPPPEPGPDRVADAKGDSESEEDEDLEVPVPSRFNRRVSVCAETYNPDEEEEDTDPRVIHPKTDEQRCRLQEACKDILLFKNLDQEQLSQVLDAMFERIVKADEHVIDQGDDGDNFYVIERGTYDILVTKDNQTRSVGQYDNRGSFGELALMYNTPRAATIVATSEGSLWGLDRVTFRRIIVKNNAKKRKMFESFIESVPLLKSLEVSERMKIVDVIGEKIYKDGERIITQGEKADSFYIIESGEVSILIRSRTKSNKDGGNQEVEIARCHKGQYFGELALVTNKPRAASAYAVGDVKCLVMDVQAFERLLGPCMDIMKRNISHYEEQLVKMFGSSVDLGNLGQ

Sequence of hRIβ-Rluc8 (PKA regulatory subunit RIβ conjugated to mutant Renilla luciferase) (human) (P31321 whole entry, change not shown): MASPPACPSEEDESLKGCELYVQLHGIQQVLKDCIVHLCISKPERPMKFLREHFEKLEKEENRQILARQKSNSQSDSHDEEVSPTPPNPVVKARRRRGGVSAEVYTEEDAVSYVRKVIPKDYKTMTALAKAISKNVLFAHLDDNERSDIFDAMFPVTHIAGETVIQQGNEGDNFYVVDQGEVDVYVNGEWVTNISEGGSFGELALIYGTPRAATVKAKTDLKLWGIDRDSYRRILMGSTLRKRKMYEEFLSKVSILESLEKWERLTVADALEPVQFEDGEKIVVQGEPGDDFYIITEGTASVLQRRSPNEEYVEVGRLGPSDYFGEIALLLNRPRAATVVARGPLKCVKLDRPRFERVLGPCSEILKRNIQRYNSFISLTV
Sequence of hRIIβ-RLuc8 (PKA regulatory subunit RIIβ conjugated to mutant Renilla luciferase) (human) (P31323 whole entry, change not shown): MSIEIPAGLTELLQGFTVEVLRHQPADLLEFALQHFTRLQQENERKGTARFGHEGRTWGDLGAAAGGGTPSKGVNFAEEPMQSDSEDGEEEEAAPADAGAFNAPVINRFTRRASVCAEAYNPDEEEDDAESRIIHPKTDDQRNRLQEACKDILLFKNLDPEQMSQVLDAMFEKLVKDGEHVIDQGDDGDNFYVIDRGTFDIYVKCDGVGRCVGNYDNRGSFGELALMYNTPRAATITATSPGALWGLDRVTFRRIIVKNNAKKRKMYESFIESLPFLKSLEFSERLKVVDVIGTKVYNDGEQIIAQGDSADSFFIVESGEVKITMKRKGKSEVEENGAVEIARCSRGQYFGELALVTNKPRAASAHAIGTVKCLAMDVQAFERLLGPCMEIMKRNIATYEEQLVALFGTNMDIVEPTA

GFP-hCα (GFP-tagged PKA catalytic subunit Cα) (from UniProt P17612 1-351) (natural protein)
BRET signal left after Fsk/IBMX (percent of the unstimulated sensor) [1]: 75% | BRET signal left after Fsk/IBMX (percent of the unstimulated sensor) [2]: 28% | BRET signal left after Fsk/IBMX (percent of the unstimulated sensor) [3]: 25%
